What was measured:
[1] = molecular target: T1, Fusion protein of extracellular domain of human TIGIT and His-tag (human TIGIT ECD-his) (human); assay: BIAcore
T1 chain: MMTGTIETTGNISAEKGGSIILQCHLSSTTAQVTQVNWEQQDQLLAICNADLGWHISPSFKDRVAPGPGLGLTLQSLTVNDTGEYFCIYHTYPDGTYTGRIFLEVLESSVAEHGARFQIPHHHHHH

[2] = molecular target: T2, Fusion protein of extracellular domain of human TIGIT and mouse IgG2a Fc fragment (human TIGIT ECD-mFc) (human); assay: ELISA, human TIGIT ECD-mFc
T2 construct: The entry includes the signal peptide (limits not recoverable) and the mouse IgG2a Fc
T2 chain: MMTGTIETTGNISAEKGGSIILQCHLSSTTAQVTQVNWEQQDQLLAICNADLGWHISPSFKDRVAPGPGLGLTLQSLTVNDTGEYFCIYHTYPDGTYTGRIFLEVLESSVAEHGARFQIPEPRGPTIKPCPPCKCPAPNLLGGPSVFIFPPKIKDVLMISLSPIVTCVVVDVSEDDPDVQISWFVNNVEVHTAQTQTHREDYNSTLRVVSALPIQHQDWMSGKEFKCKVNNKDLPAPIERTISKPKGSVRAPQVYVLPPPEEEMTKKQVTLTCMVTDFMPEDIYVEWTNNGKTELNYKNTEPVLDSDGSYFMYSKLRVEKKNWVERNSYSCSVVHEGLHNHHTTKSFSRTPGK

[3] = molecular target: T3, Fusion protein of extracellular domain of cynomolgus monkey TIGIT and mouse IgG2a Fc fragment (cynomolgus … (cynomolgus monkey)); assay: ELISA, cynomolgus monkey TIGIT ECD-mFc
T3 construct: The entry includes the signal peptide (limits not recoverable) and the mouse IgG2a Fc

[4] = molecular target: T4, Full-length cynomolgus monkey TIGIT on CHO-K1 cells (CHO-K1 cynomolgus monkey TIGIT) (cynomolgus monkey); assay: cell binding, CHO-K1 cynomolgus monkey TIGIT
T4 construct: NCBI XP_015300911.1
How it was run: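 Binding was measured by flow cytometry after a 60-minute, 4° C incubation of the antibodies with 2×10⁵ CHO-K1 cells displaying full-length human or cynomolgus monkey TIGIT. Antibody titration: 12 points, threefold serial dilution from 80 nM, in 1% BSA-PBS.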

[5] = molecular target: T5, Full-length human TIGIT on CHO-K1 cells (CHO-K1 human TIGIT) (human, UniProt Q495A1 22-244); assay: FACS; blocking of Bio-CD155-His binding to CHO-K1 human TIGIT cells
T5 construct: NCBI XP_024309156.1; the entry includes the signal peptide (limits not recoverable); The strain (high, medium, low) is named under assay; also called high expression strain 1D2; medium expression strain 2D10
T5 sequence: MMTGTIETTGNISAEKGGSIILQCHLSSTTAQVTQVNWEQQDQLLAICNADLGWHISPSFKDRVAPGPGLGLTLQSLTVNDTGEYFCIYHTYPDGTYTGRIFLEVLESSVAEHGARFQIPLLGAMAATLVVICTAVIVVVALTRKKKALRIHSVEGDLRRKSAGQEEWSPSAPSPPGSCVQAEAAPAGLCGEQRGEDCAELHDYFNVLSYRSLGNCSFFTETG
How it was run: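 Flow cytometry blocking assay in CHO-K1 human TIGIT cells (2×10⁵/40 μL in 1% BSA-PBS). Cells were mixed with equal volumes of antibody (12-point 3-fold dilution from 210 nM) and biotinylated CD155-His (diluted to 3 μg/mL), then held at 4° C for 60 min. Bound ligand was detected with APC-streptavidin (1:1700, 4° C, 40 min) on a BD Canto II. IC50 came from the inhibition curves.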

[6] = molecular target: T6, human PVRIG-his (AcroBiosystems, Cat NO. PVG-H52H4) (human, UniProt Q6DKI7 41-171, limits assumed); assay: SPR (BIAcore), antibody captured on Protein A chip, human PVRIG-His analyte
T6 construct: also called human PVRIG protein
T6 sequence (looked up): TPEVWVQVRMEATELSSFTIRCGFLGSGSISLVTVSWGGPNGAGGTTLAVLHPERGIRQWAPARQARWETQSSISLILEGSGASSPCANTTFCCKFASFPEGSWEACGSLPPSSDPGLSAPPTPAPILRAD
How it was run: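 Anti-PVRIG antibody captured on a Protein A chip to about 50 RU Rmax, then human PVRIG-His injected at graded concentrations in multi-cycle kinetics (association and dissociation). Chip regenerated with glycine pH 1.5 between cycles; affinity derived from the fitted kinetics.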

T3 sequence (chain, as listed by the source limits assumed): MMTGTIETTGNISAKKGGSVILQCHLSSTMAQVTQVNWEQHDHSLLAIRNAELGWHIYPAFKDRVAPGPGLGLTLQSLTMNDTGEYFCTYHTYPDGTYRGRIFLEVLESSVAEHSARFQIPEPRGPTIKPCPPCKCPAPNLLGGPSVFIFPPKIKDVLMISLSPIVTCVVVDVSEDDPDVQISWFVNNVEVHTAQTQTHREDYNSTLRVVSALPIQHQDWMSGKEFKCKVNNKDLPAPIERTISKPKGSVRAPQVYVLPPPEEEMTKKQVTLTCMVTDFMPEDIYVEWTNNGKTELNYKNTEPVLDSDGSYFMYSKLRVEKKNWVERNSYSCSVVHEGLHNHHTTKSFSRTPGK
T4 sequence (chain, as listed by the source limits assumed): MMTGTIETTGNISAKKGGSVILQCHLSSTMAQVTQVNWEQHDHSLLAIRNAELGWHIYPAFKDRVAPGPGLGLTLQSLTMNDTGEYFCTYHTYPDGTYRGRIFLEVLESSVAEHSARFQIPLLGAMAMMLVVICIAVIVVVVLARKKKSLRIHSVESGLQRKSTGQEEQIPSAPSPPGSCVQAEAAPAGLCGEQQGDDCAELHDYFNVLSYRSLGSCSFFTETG

Row | Binder | Kd [1] | koff [1] | kon [1] | EC50 [2] | EC50 [3] | EC50 [4] | IC50 [5] | Kd [6] | koff [6] | kon [6]
1 | TIGIT-002-H4L3 (antibody, V domains shown, Humanized anti-TIGIT antibody) VH: EVQLQESGPGLVKPSETLSLTCAVSGYSITSDSWNWIRQPPGKKLEYIGYISYSGNTYYNPSLKSRVTISRDTSKNQFSLKLSSVTAADTAVYYCARLDFSNYGGAVDYWGQGTTVTVSS VL: DIVMTQSPDSLAVSLGERATINCKASQNVRTAVAWYQQKPGQSPKLMIYSASYRYTGVPDRFSGSGSGTDFTLTISSLQAEDVAVYYCQQYYTTPWTFGGGTKVEIK | 99.4 pM | 0.000293 s⁻¹ | 2.95e+06 M⁻¹ s⁻¹ | 37 pM | 42.7 pM | 47.3 pM | 137 pM |  |  | 
2 | TIGIT-005-H2L1d (antibody, V domains shown, Humanized anti-TIGIT antibody with NG-site mutation in VL) VH: EVQLVQSGAEVKKPGASVKVSCKASGYAFTNYLIEWVRQAPGQRLEWMGVINPGSGGTNYKEKFKGRVTITADKSSSTAYMELSSLRSEDTAVYYCARGEYFFFDYWGQGTTVTVSS VL: DIVMTQSPDSLAVSLGERATINCKASQHVSNAVAWYQHKPGQSPKLLIYSASYRYTGVPDRFSGSGSGTDFTLTISSLQAEDVAVYYCQQHYNTPHTFGGGTKVEIK | 85.2 pM | 0.000257 s⁻¹ | 3.02e+06 M⁻¹ s⁻¹ | 31.1 pM | 39.5 pM | 56.6 pM | 150 pM |  |  | 
3 | TIGIT-006-H5L3 (antibody, V domains shown, Humanized anti-TIGIT antibody) VH: EVQLQESGPGLVKPSETLSLTCAVSGYSMTSDYWNWIRQPPGKKLEYIGYISYSGRTYYNPSLKSRVTISRDTSKNQFSLKLSSVTAADTAVYYCARGDYSNYGGAMYDWGQGTTVTVSS VL: DIVMTQSPDSLAVSLGERATINCRASQGVSTTIAWYQQKPGQSPKLLIYSASYRYTGVPRFSGSGSGTDFTLTISSLQAEDVAVYYCQQYYSSPFTFGGGTKVEIK | 115 pM | 0.000183 s⁻¹ | 1.6e+06 M⁻¹ s⁻¹ | 31.9 pM | 40.6 pM | 57.8 pM | 171 pM |  |  | 
4 | TIGIT-070-H1L1 (antibody, V domains shown, Humanized anti-TIGIT antibody) VH: EVQLVQSGAEVKKPGASVKVSCKASGYTFTNYYMHWVRQAPGQRLEWMGRIDPDSGGSKYNEKFKSRVTITVDKSASTAYMELSSLRSEDTAVYYCAREGHYGFYSDYWGQGTTVTVSS VL: DIQMTQSPSSLSASVGDRVTITCRVSENIYSYLAWYQQKPGKSPKLLIYNAKTLAEGVPSRFSGSGSGTDFTLTISSLQPEDFATYYCQHHYGNPLTFGPGTKVDIK | 251 pM | 0.000219 s⁻¹ | 875000 M⁻¹ s⁻¹ | 28.4 pM | 34.7 pM | 59.6 pM | 212 pM |  |  | 
5 | PVRIG-A118 (Fc fusion, heavy chain antibody VHH-hinge-CH2-CH3, human IgG1 constant part; not shown: human IgG1 hinge-CH2-CH3) QVQLVESGGGLVQAGGSLRLSCAASETYFDLYVMGWYRQAPGKDRELVATITYTGSIKIVDSVKDRFTISRGDAKNTVSLQMSSLKPEDTAVYFCNADPSGLGRKVYWGQGTQVTVSS |  |  |  |  |  |  |  | 480 pM | 0.00114 s⁻¹ | 2.38e+06 M⁻¹ s⁻¹
6 | PVRIG-A105 (Fc fusion, heavy chain antibody VHH-hinge-CH2-CH3, human IgG1 constant part; not shown: human IgG1 hinge-CH2-CH3) EVQLVESGGGLVQAGGSLRLSCAASGRTFDRHTMTWFRQAPGKEREFVATASRIPGDTYYSHSVKGRFTISRDNAKNTVYLQLNNLKPEDTAVYYCAATSAYCSEVDCYEKGSWYDNWGQGIQVTVSS |  |  |  |  |  |  |  | 841 pM | 0.000443 s⁻¹ | 527000 M⁻¹ s⁻¹
7 | PVRIG-A50 (Fc fusion, heavy chain antibody VHH-hinge-CH2-CH3, human IgG1 constant part; also called PVRIG-50; not shown: human IgG1 hinge-CH2-CH3) EVQLVESGGGLVQPGGSLRLSCAASGFTFSYYDMSWVRQAPGKGLEWVSTINSNGGRTSYVDSVKGRFTISRDNTKNTLYLQMNSLKPEDTAVYYCVEGDPHNFGLENLSLRDFGSWGQGTQVTVSS |  |  |  |  |  |  |  | 25.4 pM | 1.29e-05 s⁻¹ | 507000 M⁻¹ s⁻¹

— US20240343803A1 (SHANDONG SIMCERE BIOPHARMACEUTICAL, published 2024)
